Target: T1, APC–ARM, human APC (407–751), N-terminally His-tagged (human, UniProt P25054 407-751)
T1 construct: human APC, armadillo repeat (ARM) domain, residues 407–751; source: E. coli BL21(DE3), purified (Ni2+-NTA, Superdex200)
T1 sequence (looked up): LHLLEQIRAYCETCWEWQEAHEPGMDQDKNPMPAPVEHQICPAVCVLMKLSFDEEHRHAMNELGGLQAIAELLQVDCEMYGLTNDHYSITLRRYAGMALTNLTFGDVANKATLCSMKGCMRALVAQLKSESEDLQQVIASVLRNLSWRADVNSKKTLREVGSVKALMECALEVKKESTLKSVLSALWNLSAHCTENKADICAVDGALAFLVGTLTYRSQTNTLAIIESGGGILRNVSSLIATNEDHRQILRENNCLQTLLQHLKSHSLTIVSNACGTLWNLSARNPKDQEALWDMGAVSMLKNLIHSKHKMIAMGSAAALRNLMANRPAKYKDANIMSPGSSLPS
Assay: pull-down; competition: GST-Amer1-A2/APC–ARM complex (0.5 mg/ml, 4 ml) preloaded on the GST column at 4 °C; 0.1, 0.2, 0.5, 1 mg/ml Asef ABR-SH3 (0.5 ml) added; SDS–PAGE, Coomassie
Conditions: both partners purified

B1: Asef-ABR-SH3 (residues 170–271) (domain or fragment, human, UniProt Q9NR80 170-271, looked up)
chain: SSSHHYSHPGGGGEQLAINELISDGSVVCAEALWDHVTMDDQELGFKAGDVIEVMDATNREWWWGRVADGEGWFPASFVRLRVNQDEPADDDAPLAGNSGAE
notes: Added as a protein at stated concentrations; its expression and purification are not described; also called ABR-SH3 domain of Asef
- binding result: binds
